How the values were obtained:
interleukin 6 (IL-6) [1] = target: interleukin 6 (IL-6) (UniProt P05231); test: IL-6 binding ELISA, relative to a Phase I DS lot; 50 mg/mL formulation without methionine, 12 months at 2 to 8°C
interleukin 6 (IL-6) [2] = target: interleukin 6 (IL-6) (UniProt P05231); test: IL-6 binding ELISA; 40±2°C, 3 months
interleukin 6 (IL-6) [3] = target: interleukin 6 (IL-6) (UniProt P05231); test: IL-6 binding ELISA; 25±2°C, 6 months
interleukin 6 (IL-6) [4] = target: interleukin 6 (IL-6) (UniProt P05231); test: IL-6 binding ELISA; 25±2°C, 3 months
interleukin 6 (IL-6) [5] = target: interleukin 6 (IL-6) (UniProt P05231); test: IL-6 binding ELISA; 5±3°C, 6 months
interleukin 6 (IL-6) [6] = target: interleukin 6 (IL-6) (UniProt P05231); test: IL-6 binding ELISA; 5±3°C, 9 months
interleukin 6 (IL-6) [7] = target: interleukin 6 (IL-6) (UniProt P05231); test: IL-6 binding ELISA; 40±2°C, 0 months
interleukin 6 (IL-6) [8] = target: interleukin 6 (IL-6) (UniProt P05231); test: IL-6 binding ELISA; 5±3°C, 6 months; remark: listed apart in the source
interleukin 6 (IL-6) [9] = target: interleukin 6 (IL-6) (UniProt P05231); test: IL-6 binding ELISA; 5±3°C, 0 months
interleukin 6 (IL-6) [10] = target: interleukin 6 (IL-6) (UniProt P05231); test: IL-6 binding ELISA; 5±3°C, 6 months; remark: listed apart in the source
interleukin 6 (IL-6) [11] = target: interleukin 6 (IL-6) (UniProt P05231); test: IL-6 binding ELISA; 5±3°C, 0 months; remark: listed apart in the source
interleukin 6 (IL-6) [12] = target: interleukin 6 (IL-6) (UniProt P05231); test: IL-6 binding ELISA; 25±2°C, 6 months; remark: listed apart in the source
interleukin 6 (IL-6) [13] = target: interleukin 6 (IL-6) (UniProt P05231); test: IL-6 binding ELISA; 5±3°C, 9 months; remark: listed apart in the source
interleukin 6 (IL-6) [14] = target: interleukin 6 (IL-6) (UniProt P05231); test: IL-6 binding ELISA; 25±2°C, 3 months; remark: listed apart in the source
interleukin 6 (IL-6) [15] = target: interleukin 6 (IL-6) (UniProt P05231); test: IL-6 binding ELISA, relative to a Phase I DS lot; 20 mg/mL formulation without methionine, T0 (frozen aliquot)
interleukin 6 (IL-6) [16] = target: interleukin 6 (IL-6) (UniProt P05231); test: IL-6 binding ELISA; 25±2°C, 0 months
interleukin 6 (IL-6) [17] = target: interleukin 6 (IL-6) (UniProt P05231); test: IL-6 binding ELISA; 40±2°C, 0 months; remark: listed apart in the source
interleukin 6 (IL-6) [18] = target: interleukin 6 (IL-6) (UniProt P05231); test: IL-6 binding ELISA; 25±2°C, 6 months; remark: listed apart in the source
interleukin 6 (IL-6) [19] = target: interleukin 6 (IL-6) (UniProt P05231); test: IL-6 binding ELISA; 25±2°C, 6 months; remark: listed apart in the source
interleukin 6 (IL-6) [20] = target: interleukin 6 (IL-6) (UniProt P05231); test: IL-6 binding ELISA; 5±3°C, 6 months; remark: listed apart in the source
interleukin 6 (IL-6) [21] = target: interleukin 6 (IL-6) (UniProt P05231); test: IL-6 binding ELISA; 25±2°C, 0 months; remark: listed apart in the source
interleukin 6 (IL-6) [22] = target: interleukin 6 (IL-6) (UniProt P05231); test: IL-6 binding ELISA; 5±3°C, 0 months; remark: listed apart in the source
interleukin 6 (IL-6) [23] = target: interleukin 6 (IL-6) (UniProt P05231); test: IL-6 binding ELISA, relative to a Phase I DS lot; 120 mg/mL formulation without methionine, T0 (frozen aliquot)
interleukin 6 (IL-6) [24] = target: interleukin 6 (IL-6) (UniProt P05231); test: IL-6 binding ELISA; 25±2°C, 0 months; remark: listed apart in the source
interleukin 6 (IL-6) [25] = target: interleukin 6 (IL-6) (UniProt P05231); test: IL-6 binding ELISA; 5±3°C, 0 months; remark: listed apart in the source
interleukin 6 (IL-6) [26] = target: interleukin 6 (IL-6) (UniProt P05231); test: IL-6 binding ELISA; 40±2°C, 1 month
interleukin 6 (IL-6) [27] = target: interleukin 6 (IL-6) (UniProt P05231); test: IL-6 binding ELISA; 5±3°C, 3 months
interleukin 6 (IL-6) [28] = target: interleukin 6 (IL-6) (UniProt P05231); test: IL-6 binding ELISA; 25±2°C, 12 months
interleukin 6 (IL-6) [29] = target: interleukin 6 (IL-6) (UniProt P05231); test: IL-6 binding ELISA; 25±2°C, 1 month
interleukin 6 (IL-6) [30] = target: interleukin 6 (IL-6) (UniProt P05231); test: IL-6 binding ELISA, relative to a Phase I DS lot; 50 mg/mL formulation without methionine, T0 (frozen aliquot)
interleukin 6 (IL-6) [31] = target: interleukin 6 (IL-6) (UniProt P05231); test: IL-6 binding ELISA; 25±2°C, 1 month; remark: listed apart in the source
interleukin 6 (IL-6) [32] = target: interleukin 6 (IL-6) (UniProt P05231); test: IL-6 binding ELISA; 40±2°C, 0 months; remark: listed apart in the source

Chain of UniProt P05231 (P05231 30-212 limits assumed): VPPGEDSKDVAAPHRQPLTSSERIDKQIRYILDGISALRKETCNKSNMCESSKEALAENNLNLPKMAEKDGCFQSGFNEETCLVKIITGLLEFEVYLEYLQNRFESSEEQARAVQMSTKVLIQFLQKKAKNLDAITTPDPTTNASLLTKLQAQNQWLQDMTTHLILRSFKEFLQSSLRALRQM

B1: COR-001 antibody (antibody, human IgG1, kappa, V domains shown)
VH: EVQLVESGGGLVQPGGSLRLSCAASGFTISSNYMIWVRQAPGKGLEWVSDLYYYAGDTYYADSVKGRFTMSRDISKNTVYLQMNSLRAEDTAVYYCARWADDHPPWIDLWGRGTLVTVSS
VL: DIQMTQSPSTLSASVGDRVTITCRASQGISSWLAWYQQKPGKAPKVLIYKASTLESGVPSRFSGSGSGTEFTLTISSLQPDDFATYYCQQSWLGGSFGQGTKLEIKR
IL-6 binding ELISA (% of assay control) (interleukin 6 (IL-6) [1]): 89%
IL-6 binding ELISA (% of Reference Standard) (interleukin 6 (IL-6) [2]): 78%
IL-6 binding ELISA (% of Reference Standard) (interleukin 6 (IL-6) [3]): 82%
IL-6 binding ELISA (% of Reference Standard) (interleukin 6 (IL-6) [4]): 91%
IL-6 binding ELISA (% of Reference Standard) (interleukin 6 (IL-6) [5]): 92%
IL-6 binding ELISA (% of Reference Standard) (interleukin 6 (IL-6) [6]): 98%
IL-6 binding ELISA (% of Reference Standard) (interleukin 6 (IL-6) [7]): 96%
IL-6 binding ELISA (% of Reference Standard) (interleukin 6 (IL-6) [8]): 95%
IL-6 binding ELISA (% of Reference Standard) (interleukin 6 (IL-6) [9]): 103%
IL-6 binding ELISA (% of Reference Standard) (interleukin 6 (IL-6) [10]): 97%
IL-6 binding ELISA (% of Reference Standard) (interleukin 6 (IL-6) [11]): 91%
IL-6 binding ELISA (% of Reference Standard) (interleukin 6 (IL-6) [12]): 100%
IL-6 binding ELISA (% of Reference Standard) (interleukin 6 (IL-6) [13]): 89%
IL-6 binding ELISA (% of Reference Standard) (interleukin 6 (IL-6) [14]): 102%
IL-6 binding ELISA (% of assay control) (interleukin 6 (IL-6) [15]): 61%
IL-6 binding ELISA (% of Reference Standard) (interleukin 6 (IL-6) [16]): 91%
IL-6 binding ELISA (% of Reference Standard) (interleukin 6 (IL-6) [17]): 94%
IL-6 binding ELISA (% of Reference Standard) (interleukin 6 (IL-6) [18]): 92%
IL-6 binding ELISA (% of Reference Standard) (interleukin 6 (IL-6) [19]): 81%
IL-6 binding ELISA (% of Reference Standard) (interleukin 6 (IL-6) [20]): 83%
IL-6 binding ELISA (% of Reference Standard) (interleukin 6 (IL-6) [21]): 96%
IL-6 binding ELISA (% of Reference Standard) (interleukin 6 (IL-6) [22]): 94%
IL-6 binding ELISA (% of assay control) (interleukin 6 (IL-6) [23]): 91%
IL-6 binding ELISA (% of Reference Standard) (interleukin 6 (IL-6) [24]): 103%
IL-6 binding ELISA (% of Reference Standard) (interleukin 6 (IL-6) [25]): 97%
IL-6 binding ELISA (% of Reference Standard) (interleukin 6 (IL-6) [26]): 85%
IL-6 binding ELISA (% of Reference Standard) (interleukin 6 (IL-6) [27]): 83%
IL-6 binding ELISA (% of Reference Standard) (interleukin 6 (IL-6) [28]): 95%
IL-6 binding ELISA (% of Reference Standard) (interleukin 6 (IL-6) [29]): 95%
IL-6 binding ELISA (% of assay control) (interleukin 6 (IL-6) [30]): 70%
IL-6 binding ELISA (% of Reference Standard) (interleukin 6 (IL-6) [31]): 93%
IL-6 binding ELISA (% of Reference Standard) (interleukin 6 (IL-6) [32]): 103%

Source: patent publication EP4631523A2
